The record followed here is patent US20100254992A1.

For assay [1], the target named is Human Monocyte Chemoattractant Protein-1 (MCP-1) (human) (UniProt P13500). The assay can be described thus: cell-based or functional assay.
The target is the same in assay [2]. The assay can be described thus: 125I-MCP-1 binding to CCR2 on THP-1 cells, radioligand competition.
Assay [3] has the same target. The assay can be described thus: IGEN (BioVeris), MCP-1 Kd.
Assay [4] concerns the target HuMCP-1-His6 (wild type) (human) (UniProt P13500). The experiment in a line: Biacore.
Assay [5] concerns the target HuMCP-1-His6 Mutant-6 (66D → 66K) (human) (UniProt P13500). The assay can be described thus: Biacore. For orientation: In SPR one partner is held on a chip, and binding of the other changes the refractive index at the surface.
The target in assay [6] is HuMCP-1-His6 Mutant-3 (15FT16 → 15VI16) (human) (UniProt P13500). The experiment in a line: Biacore, C775 captured, MCP-1-His6 in solution.
Assay [7] addresses HuMCP-1-His6 Mutant-P8A (human) (UniProt P13500). The experiment in a line: Biacore, C775 captured, MCP-1-His6 in solution.
Assay [8] has as its target HuMCP-1-His6 Mutant-4 (29R → 29T) (human) (UniProt P13500). The experiment in a line: Biacore, C775 captured, MCP-1-His6 in solution.
The target in assay [9] is HuMCP-1-His6 (wild type) (human) (UniProt P13500). The experiment in a line: Biacore, C775 captured, MCP-1-His6 in solution.
The target in assay [10] is HuMCP-1-His6 Mutant-1 (33SSK35 → 33NIQ35) (human) (UniProt P13500). The experiment in a line: Biacore, C775 captured, MCP-1-His6 in solution.
The target in assay [11] is HuMCP-1-His6 Mutant-2 (6NA7 → 6SI7) (human) (UniProt P13500). The assay can be described thus: Biacore, C775 captured, MCP-1-His6 in solution.
For assay [12], the target named is HuMCP-1-His6 Mutant-9 (4AINA7 . . . 46IV47 → 4SVSI7 . . . 46KR47) (human). The experiment in a line: Biacore, C775 captured, MCP-1-His6 in solution.
Assay [13] concerns the target HuMCP-1-His6 Mutant-5 (46IV47 → 46KR47) (human) (UniProt P13500). The experiment in a line: Biacore, C775 captured, MCP-1-His6 in solution.
The target in assay [14] is HuMCP-1-His6 Mutant-7 (4AINA7 → 4SVSI7) (human) (UniProt P13500). The assay can be described thus: Biacore, C775 captured, MCP-1-His6 in solution.
Assay [15] concerns the target HuMCP-1-His6 Mutant-6 (66D → 66K) (human) (UniProt P13500). The assay can be described thus: Biacore, C775 captured, MCP-1-His6 in solution.
Assay [16] addresses HuMCP-1-His6 Mutant-Y13A (human) (UniProt P13500). The assay can be described thus: Biacore, C775 captured, MCP-1-His6 in solution.
Assay [17] concerns the target HuMCP-1-His6 Mutant-8 (4AINA7 → 4GGGG7) (human) (UniProt P13500). The assay can be described thus: Biacore, C775 captured, MCP-1-His6 in solution.

HuMCP-1-His6 Mutant-9 (4AINA7 . . . 46IV47 → 4SVSI7 . . . 46KR47) (human), sequence (chain, as listed by the source mutant limits assumed): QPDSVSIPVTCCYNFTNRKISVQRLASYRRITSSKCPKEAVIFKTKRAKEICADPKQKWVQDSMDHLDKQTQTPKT
HuMCP-1-His6 Mutant-7 (4AINA7 → 4SVSI7) (human), sequence (P13500 other isoform, or with tags, fused parts or gaps mutant limits assumed): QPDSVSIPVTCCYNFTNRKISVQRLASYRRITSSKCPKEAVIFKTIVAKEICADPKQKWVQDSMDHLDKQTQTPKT
HuMCP-1-His6 Mutant-2 (6NA7 → 6SI7) (human), sequence (P13500 other isoform, or with tags, fused parts or gaps mutant limits assumed): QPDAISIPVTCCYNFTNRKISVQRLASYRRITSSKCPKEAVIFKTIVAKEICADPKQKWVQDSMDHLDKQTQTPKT
HuMCP-1-His6 Mutant-P8A (human), sequence (P13500 other isoform, or with tags, fused parts or gaps limits assumed, stated change not applied): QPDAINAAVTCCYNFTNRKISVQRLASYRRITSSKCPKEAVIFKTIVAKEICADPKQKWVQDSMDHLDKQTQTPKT
HuMCP-1-His6 Mutant-4 (29R → 29T) (human), sequence (P13500 other isoform, or with tags, fused parts or gaps mutant limits assumed): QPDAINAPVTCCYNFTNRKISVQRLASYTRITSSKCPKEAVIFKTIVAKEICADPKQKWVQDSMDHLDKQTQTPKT
HuMCP-1-His6 Mutant-8 (4AINA7 → 4GGGG7) (human), sequence (P13500 other isoform, or with tags, fused parts or gaps mutant limits assumed): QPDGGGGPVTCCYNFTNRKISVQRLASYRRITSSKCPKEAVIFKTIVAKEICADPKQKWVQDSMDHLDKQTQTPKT
HuMCP-1-His6 (wild type) (human), sequence (P13500 24-99 limits assumed): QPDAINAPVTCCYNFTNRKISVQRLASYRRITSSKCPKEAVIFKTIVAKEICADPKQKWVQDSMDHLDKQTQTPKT
Human Monocyte Chemoattractant Protein-1 (MCP-1) (human), sequence (P13500 24-99 limits assumed): as above
HuMCP-1-His6 Mutant-Y13A (human), sequence (P13500 24-99 Y36A limits assumed): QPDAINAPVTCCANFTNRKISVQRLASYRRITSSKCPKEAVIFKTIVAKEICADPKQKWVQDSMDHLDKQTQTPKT
HuMCP-1-His6 Mutant-6 (66D → 66K) (human), sequence (P13500 other isoform, or with tags, fused parts or gaps mutant, form in doubt): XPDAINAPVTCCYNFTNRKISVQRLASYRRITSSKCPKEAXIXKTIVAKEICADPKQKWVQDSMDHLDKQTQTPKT
HuMCP-1-His6 Mutant-3 (15FT16 → 15VI16) (human), sequence (P13500 other isoform, or with tags, fused parts or gaps mutant limits assumed): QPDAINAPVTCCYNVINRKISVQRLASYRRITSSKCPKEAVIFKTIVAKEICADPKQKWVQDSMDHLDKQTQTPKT
HuMCP-1-His6 Mutant-1 (33SSK35 → 33NIQ35) (human), sequence (P13500 other isoform, or with tags, fused parts or gaps mutant limits assumed): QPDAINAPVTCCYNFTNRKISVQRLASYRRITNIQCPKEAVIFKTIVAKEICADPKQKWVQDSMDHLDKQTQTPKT
HuMCP-1-His6 Mutant-5 (46IV47 → 46KR47) (human), sequence (P13500 other isoform, or with tags, fused parts or gaps mutant limits assumed): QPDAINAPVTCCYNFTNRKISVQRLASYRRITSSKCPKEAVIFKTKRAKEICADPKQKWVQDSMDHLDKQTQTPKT

B1: C775 Fab (reference Fab) (Fab, from another filing, V domains shown)
VH: QVQLKQSGAELVRPGASVKLSCKASGYTFTDYYINWVKQRPGQGLEWIARIYPGTGNTYYNENFKGKATLTAEKSSSTAYMQLSSLTSEDSAVYFCARSGSTVVGNYYGMDYWGQGTSVTVSS
VL: SIVMTQTPKFLLVSAGDRVSITCKASQSVSNDVAWYQQKPGQSPKLLIYYASNRYTGVPDRFTGSGYGTDFTFTISTVQAEDLAVYFCQQDYSSPWTFGGGTKLEIKR
A word on the IC50: it is the concentration that gives 50% inhibition. Read a low IC50 as inhibition by little substance. By Kd is commonly meant the free concentration of one partner at which half of the binding sites on the other are occupied at equilibrium, for simple one-to-one binding. Read a high Kd as a looser complex. Regarding B1, the Inhibition of Ca2+ Mobilization IC50 in assay [1] amounted to 71.5 nM. The molecule also came in with an IC50 in assay [2] of 35.6 nM. The molecule also had a dissociation constant Kd in [3] of 65 nM.

B2: C775 (murine anti-human MCP-1 antibody, IgG) (antibody, from another filing, V domains shown)
VH: B1 VH
VL: B1 VL
A word on the koff: it is the rate constant with which the complex falls apart. A low value points to slow dissociation. Usually kon stands for the rate constant with which the complex forms. Molecule B2 showed an Inhibition of Ca2+ Mobilization IC50 in assay [1] of 62.3 nM. In assay [2], this molecule displayed a half-maximal inhibitory concentration (IC50) of 25.6 nM. The Kd in assay [4] came to 3 nM; in assay [6] it was 4.5 nM; in assay [7] it was 2.6 nM; in [8], 3 nM; in [9] it was 3.1 nM; in assay [10] it was 2 nM. Moreover, the Kd in assay [11] was determined as 6.3 nM; in [12] it was 1.7 nM; in [13] it was 1.7 nM; in [14], 4.5 nM; in assay [15] it was 27.7 nM; in [16] it was 1.7 nM. Besides, the Kd in assay [17] was 5.5 nM. The fold decrease in fold change in binding affinity against wild type MCP-1 in assay [5] was 9 fold. Besides, the off-rate constant (koff) was found to be 0.0074 s⁻¹ in assay [6]; 0.00448 s⁻¹ in assay [7]; 0.0027 s⁻¹ in assay [8]; 0.00503 s⁻¹ in assay [9]; 0.0034 s⁻¹ in assay [10]; 0.00548 s⁻¹ in assay [11]. Further, the koff came to 0.00531 s⁻¹ in [12]; 0.00278 s⁻¹ in assay [13]; 0.00327 s⁻¹ in [14]; 0.00541 s⁻¹ in assay [15]; 0.003 s⁻¹ in [16]; 0.00947 s⁻¹ in assay [17]. Further, the on-rate constant (kon) came to 1.66e+06 M⁻¹ s⁻¹ in [6]; 1.75e+06 M⁻¹ s⁻¹ in [7]; 880000 M⁻¹ s⁻¹ in assay [8]; 1.64e+06 M⁻¹ s⁻¹ in assay [9]; 1.6e+06 M⁻¹ s⁻¹ in assay [10]; 868000 M⁻¹ s⁻¹ in assay [11]. Moreover, the kon in [12] is 3.16e+06 M⁻¹ s⁻¹; in assay [13] it was 1.64e+06 M⁻¹ s⁻¹; in assay [14] it was 720000 M⁻¹ s⁻¹; in [15], 195000 M⁻¹ s⁻¹; in assay [16], 1.79e+06 M⁻¹ s⁻¹; in assay [17], 1.73e+06 M⁻¹ s⁻¹.
